Results on two molecules are retold here after PMC3996851, “Characterization of 3-phosphoglycerate kinase from Corynebacterium glutamicum and its impact on amino acid production” (BMC Microbiology, 2014).

The Ki is a measure of affinity in units of concentration, obtained from inhibition or displacement. Lower therefore signals higher affinity. A word on the Km: it is the substrate concentration at which the rate is half of its maximum. What is called kcat is the maximal rate divided by the concentration of active sites. As a reminder, the kcat/Km is the second-order rate constant that governs catalysis at low substrate concentration. In general, stoichiometry N refers to a count of units in the complex or per binding partner.

The target of data set [1] is T1, PGK^His (C. glutamicum 3-phosphoglycerate kinase) (Corynebacterium glutamicum, UniProt Q01655).
T1 construct: full length, N-terminal tenfold His tag (pET16b); expressed in E. coli BL21(DE3), Ni-NTA purified; 47 kDa monomer, 104 kDa homodimer
Briefly: coupled GAPDH/NADH assay, absorbance […] nm. It is filed as biochemical.

Substrate in data set [2]: Nc1ncnc2c1ncn2[C@@H]1O[C@H](COP(=O)(O)OP(=O)(O)OP(=O)(O)O)[C@@H](O)[C@H]1O
Briefly: purified protein. It is filed as biochemical, Corynebacterium glutamicum. The following applies: gluconeogenic direction, co-substrate 3-PG, 2 mM Mg2+, 100 mM TEA-Cl pH 7.4, 30°C.

Substrate in data set [3]: O=C(O)[C@H](O)COP(=O)(O)O
Briefly: purified protein. It is filed as biochemical, Corynebacterium glutamicum. The following applies: gluconeogenic direction, co-substrate ATP, 2 mM Mg2+, 100 mM TEA-Cl pH 7.4, 30°C.

Data set [4] deals with the molecule itself. Briefly: SEC; gel filtration on a Bio-Prep SE-1000/17 column calibrated with BioRad standards; 100 mM TEA-Cl pH 7.4 with the optimal conditions for activity; two runs, 2 mg/ml PGK mixed with standards and 4 mg/ml PGK; single peak of about 104 kDa, fractions checked by enzyme activity (data not shown). For orientation: In gel filtration, larger molecules generally elute earlier.

On to `Nc1ncnc2c1ncn2[C@@H]1O[C@H](COP(=O)(O)OP(=O)(O)O)[C@@H](O)[C@H]1O` [ADP], for which the Ki in data set [1] came out at 100 µM.

B1: 3-phosphoglycerate kinase (PGK) from Corynebacterium glutamicum, N-terminally His-tagged (enzyme, Corynebacterium glutamicum ATCC 13032, UniProt Q01655 1-405, looked up)
chain: MAVKTLKDLLDEGVDGRHVIVRSDFNVPLNDDREITDKGRIIASLPTLKALSEGGAKVIVMAHLGRPKGEVNEKYSLAPVAEALSDELGQYVALAADVVGEDAHERANGLTEGDILLLENVRFDPRETSKDEAERTAFAQELAALAADNGAFVSDGFGVVHRAQTSVYDIAKLLPHYAGGLVETEISVLEKIAESPEAPYVVVLGGSKVSDKIGVIEALAAKADKIIVGGGMCYTFLAAQGHNVQQSLLQEEMKATCTDLLARFGDKIVLPVDLVAASEFNKDAEKQIVDLDSIPEGWMSLDIGPESVKNFGEVLSTAKTIFWNGPMGVFEFAAFSEGTRGIAQAIIDATAGNDAFSVVGGGDSAASVRVLGLNEDGFSHISTGGGASLEYLEGKELPGVAILAQ
notes: 3-phosphoglycerate kinase (EC 2.7.2.3) of Corynebacterium glutamicum ATCC 13032, encoded by cg1790/pgk; amplified from genomic DNA with primers from start to stop; monomer 47 kDa by SDS-PAGE; The methods say an N-terminal tenfold His tag (pET16b); also called PGK^His; PGKHis; source: E. coli BL21 (DE3) (pET16b-pgk), purified (Ni-NTA, desalted on Sephadex G25); not shown: His10, N-terminal, kept
Regarding B1, in “purified protein [2]”, the Km is recorded as 0.11 mM, the Vmax is 150 U/mg, the kcat stood at 130 s⁻¹ and the specificity constant (kcat/Km) was 592 s⁻¹ mM⁻¹. For the same molecule, in “purified protein [3]”, the Michaelis-Menten constant (Km) worked out at 0.26 mM, the Vmax is recorded as 220 U/mg, the kcat worked out at 191 s⁻¹ and the kcat/Km is 733 s⁻¹ mM⁻¹. Moreover, in data set [4], the “stoichiometry N” value amounted to 2.
